± gives the uncertainty stated by the source.

This data set can be described thus: self-splicing fitness, log relative to wild type (ln ratio); higher = more splicing; Tetrahymena group I intron in knt gene, E. coli kanamycin selection, DiMSum; sequences stand for … in CUCUCU…GGAGGGAAAAGUUAUCAGGCAUGCACCUGGUAGCUAGUCUUUAAACCAAUAGAUUGCAUCGGUUUAAAAGGCAAGACCGUCAAAUUGCGGGAAAGGGGUCAACAGCCGUUCAGUACCAAGUCUCAGGGGAAACUUUGAGAUGGCCUUGCAAAGGGUAUGGUAAUAAGCUGACGGACAUGGUCCUAACCACGCAGCCAAGUCCUAAGUCAACAGAUCUUCUGUUGAUAUGGAUGCAGUUCACAGACUAAAUGUCGGUCGGGGAAGAUGUAUUCUUCUCAUAAGAUAUAGUCGGACCUCUCCUUAAUGGGAGCUAGCGGAUGAAGUGAUGCAACACUGGAGCCGCUGGGAACUAAUUUGUAUGCGAAAGUAUAUUGAUUAGUUUUGGAGUACUCGUGGUCG
Put shortly: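 Pooled colonies went to amplicon sequencing on an Illumina HiSeq 2500 after six replicate transformations. The plates were LB agar with 100 μg/mL carbenicillin, 50 μM IPTG and 0.2% rhamnose, with or without 25 μg/mL kanamycin, incubated overnight at 37°C or 30°C. The E. coli BL21(DE3) library had all eight P1ex-region intron nucleotides randomised, the intron placed in the knt kanamycin-resistance gene on pET-22b(+). DiMSum fitness is the error-weighted combination of replicate fold changes, kanamycin against none, normalised to wild type.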

For the sequence CACGAGCAAUAUUACGUCUC, the “self-splicing fitness (ln)” value is -2.49 ± 0.27 (30 °C) and -3.63 ± 0.34 (37 °C). Consider CUUAAGCAAUAUUACGCAAU, for which the “self-splicing fitness (ln)” value (37 °C) was -2.62 ± 0.44.

As for CUACAGCAAUAUUACGUGCU, the “self-splicing fitness (ln)” value (37 °C) was -2 ± 0.13. AGACAGCAAUAUUACGCGUG: the “self-splicing fitness (ln)” value is, setting by setting: (30 °C) -1.91 ± 0.075; (37 °C) -0.597 ± 0.086.

For CGGCAGCAAUAUUACGGACG, the “self-splicing fitness (ln)” value runs as follows: (30 °C) -2.73 ± 0.21; (37 °C) -2.42 ± 0.28. As for GCAUAGCAAUAUUACGUCUA, the “self-splicing fitness (ln)” value runs as follows: (30 °C) -0.451 ± 0.14; (37 °C) -0.993 ± 0.13. Turning to AGAAAGCAAUAUUACGGUCA, the “self-splicing fitness (ln)” value is, setting by setting: (30 °C) -0.253 ± 0.078; (37 °C) 0.187 ± 0.091. With CGCAAGCAAUAUUACGGGUG, the “self-splicing fitness (ln)” value is -1.59 ± 0.062 (30 °C) and -0.366 ± 0.08 (37 °C). The matching figures for UUAGAGCAAUAUUACGCACG: -0.444 ± 0.17 and -0.183 ± 0.18. With GGCUAGCAAUAUUACGUCGA, the “self-splicing fitness (ln)” value is, setting by setting: (30 °C) -1.19 ± 0.071; (37 °C) -0.818 ± 0.093. Turning to GAAAAGCAAUAUUACGGAAU, the “self-splicing fitness (ln)” value is, setting by setting: (30 °C) -2.81 ± 0.13; (37 °C) -1.07 ± 0.1. Regarding GCAAAGCAAUAUUACGGUCC, the “self-splicing fitness (ln)” value is -1.75 ± 0.14 (30 °C) and -0.8 ± 0.15 (37 °C). The matching figures for CACGAGCAAUAUUACGCAAC: -1.88 ± 0.44 and -2.56 ± 0.36. Regarding AGAUAGCAAUAUUACGCCAU, the “self-splicing fitness (ln)” value is -2.38 ± 0.12 (30 °C) and -1.27 ± 0.13 (37 °C). Turning to CUACAGCAAUAUUACGCCCG, the “self-splicing fitness (ln)” value (30 °C) was found to be 0.0629 ± 0.15 and the “self-splicing fitness (ln)” value (37 °C) is -0.112 ± 0.14.

On to AACCAGCAAUAUUACGUCUC, for which the “self-splicing fitness (ln)” value was -1.23 ± 0.056 (30 °C) and -0.774 ± 0.076 (37 °C). In the case of AAUAAGCAAUAUUACGGAAU, the “self-splicing fitness (ln)” value was -2.69 ± 0.15 (30 °C) and -0.645 ± 0.11 (37 °C).

Take GAGAAGCAAUAUUACGGUUC: the “self-splicing fitness (ln)” value is -2.91 ± 0.13 (30 °C) and -1.5 ± 0.13 (37 °C). GUGGAGCAAUAUUACGUCUC: the “self-splicing fitness (ln)” value is, setting by setting: (30 °C) -3.56 ± 0.15; (37 °C) -2.77 ± 0.16. As to GAACAGCAAUAUUACGACCC, the “self-splicing fitness (ln)” value runs as follows: (30 °C) -0.0445 ± 0.095; (37 °C) 0.121 ± 0.11. Turning to UGCGAGCAAUAUUACGACAG, the “self-splicing fitness (ln)” value is -2.55 ± 0.21 (30 °C) and -1.29 ± 0.18 (37 °C). For AGAGAGCAAUAUUACGCGCA, the “self-splicing fitness (ln)” value was -3 ± 0.36 (30 °C) and -1.74 ± 0.14 (37 °C). For AGCGAGCAAUAUUACGACUA, the “self-splicing fitness (ln)” value runs as follows: (30 °C) -0.953 ± 0.37; (37 °C) -1.03 ± 0.31.

For the sequence UACUAGCAAUAUUACGAGAC, for the setting “37 °C”, the “self-splicing fitness (ln)” value is -1.56 ± 0.25. With GAUAAGCAAUAUUACGGGAA, the “self-splicing fitness (ln)” value runs as follows: (30 °C) -2.84 ± 0.25; (37 °C) -1.99 ± 0.22. AUCUAGCAAUAUUACGGGGU: the “self-splicing fitness (ln)” value is -3 ± 0.16 (30 °C) and -2.98 ± 0.2 (37 °C). Consider CCUAAGCAAUAUUACGGAAU, for which the “self-splicing fitness (ln)” value (30 °C) was -3.6 ± 0.25 and the “self-splicing fitness (ln)” value (37 °C) is -2.48 ± 0.19. For CUAAAGCAAUAUUACGUCCU, the “self-splicing fitness (ln)” value (30 °C) is -3.29 ± 0.24 and the “self-splicing fitness (ln)” value (37 °C) is -1.92 ± 0.26. In the case of UAGAAGCAAUAUUACGUGCU, the “self-splicing fitness (ln)” value by setting is: (30 °C) -2.8 ± 0.21; (37 °C) -2.42 ± 0.24. In the same order, the values of CGUCAGCAAUAUUACGGCAA are -1.75 ± 0.14 and -1.89 ± 0.13. Turning to CUCUAGCAAUAUUACGGAUC, the “self-splicing fitness (ln)” value (30 °C) is -3.4 ± 0.21 and the “self-splicing fitness (ln)” value (37 °C) is -3.33 ± 0.33. As to UCGAAGCAAUAUUACGUUUU, the “self-splicing fitness (ln)” value by setting is: (30 °C) -3.28 ± 0.14; (37 °C) -3.09 ± 0.29.

For the sequence UUAUAGCAAUAUUACGCGUA, the “self-splicing fitness (ln)” value is, setting by setting: (30 °C) -0.829 ± 0.14; (37 °C) -1.17 ± 0.14.

Consider CUUCAGCAAUAUUACGGCGG, for which the “self-splicing fitness (ln)” value reads like this: (30 °C) -2.02 ± 0.27; (37 °C) -1.25 ± 0.18. Take CGGCAGCAAUAUUACGCUAU: the “self-splicing fitness (ln)” value (30 °C) was -3.57 ± 0.28 and the “self-splicing fitness (ln)” value (37 °C) was -2.75 ± 0.26. For the sequence AUUCAGCAAUAUUACGUGUU, the “self-splicing fitness (ln)” value is -2.68 ± 0.1 (30 °C) and -1.39 ± 0.089 (37 °C). Turning to AACGAGCAAUAUUACGUGUU, the “self-splicing fitness (ln)” value (37 °C) is -3.62 ± 0.34. As to UAGUAGCAAUAUUACGUUAU, the “self-splicing fitness (ln)” value by setting is: (30 °C) -3.5 ± 0.43; (37 °C) -3.13 ± 0.4. As for UAGGAGCAAUAUUACGUAAU, the “self-splicing fitness (ln)” value (30 °C) is -3.15 ± 0.34.
